Earlier results in article PMC4843017.

Biological target: Ndc80 complex (Homo sapiens) (UniProt O14777)
Assay: isothermal titration calorimetry

Sequence of Ndc80 complex (Homo sapiens) (O14777 whole entry, chain 1 of 4): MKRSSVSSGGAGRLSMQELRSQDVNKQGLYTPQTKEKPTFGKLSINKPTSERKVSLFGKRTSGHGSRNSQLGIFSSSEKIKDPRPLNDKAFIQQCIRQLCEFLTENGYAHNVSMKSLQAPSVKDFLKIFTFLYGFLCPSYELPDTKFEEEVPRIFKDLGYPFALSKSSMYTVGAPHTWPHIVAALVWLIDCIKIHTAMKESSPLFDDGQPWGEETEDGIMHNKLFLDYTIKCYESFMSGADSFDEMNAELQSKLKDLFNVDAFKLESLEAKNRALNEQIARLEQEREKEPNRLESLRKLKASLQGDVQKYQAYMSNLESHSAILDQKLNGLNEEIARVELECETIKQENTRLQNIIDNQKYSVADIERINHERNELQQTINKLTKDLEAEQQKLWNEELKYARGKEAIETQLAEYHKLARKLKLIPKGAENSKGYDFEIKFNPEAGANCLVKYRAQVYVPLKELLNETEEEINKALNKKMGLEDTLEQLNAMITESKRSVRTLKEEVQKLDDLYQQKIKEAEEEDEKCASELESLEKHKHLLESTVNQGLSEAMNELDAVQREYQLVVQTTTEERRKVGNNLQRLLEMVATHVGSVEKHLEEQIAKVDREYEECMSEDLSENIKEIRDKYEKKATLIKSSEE
Sequence of Ndc80 complex (Homo sapiens) (Q9BZD4 whole entry, chain 2 of 4, further chain): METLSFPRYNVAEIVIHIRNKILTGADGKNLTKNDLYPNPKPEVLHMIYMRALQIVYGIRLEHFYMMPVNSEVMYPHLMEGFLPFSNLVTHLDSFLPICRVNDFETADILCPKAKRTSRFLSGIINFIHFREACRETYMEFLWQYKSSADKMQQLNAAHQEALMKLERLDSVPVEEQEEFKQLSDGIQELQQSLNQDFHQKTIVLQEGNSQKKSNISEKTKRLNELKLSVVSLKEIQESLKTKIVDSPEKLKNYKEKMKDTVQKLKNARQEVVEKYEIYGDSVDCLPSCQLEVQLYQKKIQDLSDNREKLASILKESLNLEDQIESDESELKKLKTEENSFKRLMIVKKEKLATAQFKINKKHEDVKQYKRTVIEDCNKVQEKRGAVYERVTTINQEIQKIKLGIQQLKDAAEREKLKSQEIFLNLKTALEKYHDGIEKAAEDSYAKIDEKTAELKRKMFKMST
Sequence of Ndc80 complex (Homo sapiens) (Q8NBT2 whole entry, chain 3 of 4, further chain): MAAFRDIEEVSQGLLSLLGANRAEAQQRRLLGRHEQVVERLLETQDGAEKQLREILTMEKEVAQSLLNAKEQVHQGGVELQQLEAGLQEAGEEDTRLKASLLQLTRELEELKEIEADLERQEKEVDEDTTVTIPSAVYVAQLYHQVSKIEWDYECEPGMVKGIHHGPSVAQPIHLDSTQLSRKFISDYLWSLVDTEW
Sequence of Ndc80 complex (Homo sapiens) (Q9HBM1 whole entry, chain 4 of 4, further chain): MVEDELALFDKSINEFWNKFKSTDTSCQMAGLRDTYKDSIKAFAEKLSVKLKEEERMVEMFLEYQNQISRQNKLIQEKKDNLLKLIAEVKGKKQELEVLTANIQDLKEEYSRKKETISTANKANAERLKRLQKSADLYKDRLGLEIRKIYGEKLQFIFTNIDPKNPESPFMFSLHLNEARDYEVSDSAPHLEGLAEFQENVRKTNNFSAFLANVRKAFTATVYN

Q: With Mis12 complex (from UniProt Q9H081) as the substance, how does the Kd read?
A: 10 nM
